For six molecules, Ki results are on record in US20200024322A1 (Eli Lilly, published 2020).

The target in one assay is T1, human GLP-1 receptor (human, UniProt P43220 24-463).
T1 construct: whole, on cells; also called hGLP-1R; hGLP1R
Put plainly: [125I]-GLP-1 competition SPA, hGLP-1R membranes. The gist of the method: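 Competition binding in 25 mM HEPES pH 7.4, 2.5 mM CaCl₂, 1 mM MgCl₂, 0.1% bacitracin, 0.003% TWEEN-20, EDTA-free protease inhibitors. IC₅₀ from four-parameter nonlinear fit; Kᵢ given as geometric mean ± SEM, n = independent replicates on different days.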

A further assay has as its target T2, human glucagon receptor (human, UniProt P47871 26-477).
T2 construct: whole, on cells; also called hGcgR; GcgR
The experiment in a line: [125I]-Gcg competition SPA, hGcgR membranes.

The target in the next assay is T3, human GIP receptor (human, UniProt P48546 22-466).
T3 construct: whole, on cells; also called hGIPR; hGIP-R
T3 sequence (looked up): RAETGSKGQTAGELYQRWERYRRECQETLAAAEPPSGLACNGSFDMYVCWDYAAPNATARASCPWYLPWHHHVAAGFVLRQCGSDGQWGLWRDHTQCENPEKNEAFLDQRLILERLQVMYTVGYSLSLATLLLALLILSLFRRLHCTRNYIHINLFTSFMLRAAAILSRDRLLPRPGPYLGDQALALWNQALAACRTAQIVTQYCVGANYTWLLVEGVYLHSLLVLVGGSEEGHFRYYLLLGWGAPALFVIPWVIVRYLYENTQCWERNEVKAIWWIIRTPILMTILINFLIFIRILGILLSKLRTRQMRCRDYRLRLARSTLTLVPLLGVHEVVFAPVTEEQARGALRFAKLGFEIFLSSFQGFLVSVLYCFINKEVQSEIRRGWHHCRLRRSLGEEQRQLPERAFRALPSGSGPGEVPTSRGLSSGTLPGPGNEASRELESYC
The experiment in a line: [125I]-GIP competition SPA, hGIPR membranes.

Numbered stars: 1 amine (or outer) side, 2 acyl side, 3 side chain; on linkers, the order of the positions; unused ones are H or OH. Square brackets hold non-standard residues; d marks the D form. Side chains are listed from the residue outwards. Ends that are not written are not given here. * marks the point of attachment. C20 diacid = O=C(O)CCCCCCCCCCCCCCCCCCC(=O)*; C18 diacid = O=C(O)CCCCCCCCCCCCCCCCC(=O)*; γGlu = O=C(O)[C@H](CCC(=O)[*:2])N[*:1]; AEEA = NCCOCCOCC(=O)O; Aib = CC(C)(N)C(=O)O

T2 sequence (P47871 26-477): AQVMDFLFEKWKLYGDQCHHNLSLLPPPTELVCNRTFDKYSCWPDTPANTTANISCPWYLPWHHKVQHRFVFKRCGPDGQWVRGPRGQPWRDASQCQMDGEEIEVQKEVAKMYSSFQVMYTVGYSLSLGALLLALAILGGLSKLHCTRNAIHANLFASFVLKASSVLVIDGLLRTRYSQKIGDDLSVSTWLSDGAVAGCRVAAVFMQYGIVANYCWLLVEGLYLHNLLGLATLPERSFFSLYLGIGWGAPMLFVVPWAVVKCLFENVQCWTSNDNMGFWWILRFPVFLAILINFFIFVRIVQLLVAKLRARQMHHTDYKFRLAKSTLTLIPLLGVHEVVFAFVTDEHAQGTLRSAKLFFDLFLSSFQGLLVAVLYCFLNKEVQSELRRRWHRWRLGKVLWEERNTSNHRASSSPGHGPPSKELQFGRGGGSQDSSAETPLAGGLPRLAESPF

B1: Example 272 (peptide)
peptide: Y[Aib]EGTFTSDYSILLDKK([AEEA-AEEA-γGlu-C18 diacid])AQ[Aib]AFIEYLIAGGPSSG-NH2
modifications: N-terminus assumed
SMILES: CC[C@H](C)[C@H](NC(=O)[C@H](CC(C)C)NC(=O)[C@H](Cc1ccc(O)cc1)NC(=O)[C@H](CCC(=O)O)NC(=O)[C@@H](NC(=O)[C@H](Cc1ccccc1)NC(=O)[C@H](C)NC(=O)C(C)(C)NC(=O)[C@H](CCC(N)=O)NC(=O)[C@H](C)NC(=O)[C@H](CCCCNC(=O)COCCOCCNC(=O)COCCOCCNC(=O)CC[C@H](NC(=O)CCCCCCCCCCCCCCCCC(=O)O)C(=O)O)NC(=O)[C@H](CCCCN)NC(=O)[C@H](CC(=O)O)NC(=O)[C@H](CC(C)C)NC(=O)[C@H](CC(C)C)NC(=O)[C@@H](NC(=O)[C@H](CO)NC(=O)[C@H](Cc1ccc(O)cc1)NC(=O)[C@H](CC(=O)O)NC(=O)[C@H](CO)NC(=O)[C@@H](NC(=O)[C@H](Cc1ccccc1)NC(=O)[C@@H](NC(=O)CNC(=O)[C@H](CCC(=O)O)NC(=O)C(C)(C)NC(=O)[C@@H](N)Cc1ccc(O)cc1)[C@@H](C)O)[C@@H](C)O)[C@@H](C)CC)[C@@H](C)CC)C(=O)N[C@@H](C)C(=O)NCC(=O)NCC(=O)N1CCC[C@H]1C(=O)N[C@@H](CO)C(=O)N[C@@H](CO)C(=O)NCC(N)=O
B1: the Ki (in general, the dissociation constant of the complex between target and ligand, obtained from inhibition or displacement) is 1.22 nM with human GLP-1 receptor, 550 nM in the assay with human glucagon receptor and 0.0353 nM with human GIP receptor.

B2: Example 317 (peptide)
peptide: Y[Aib]EGTFTSDYSILLDKK([AEEA-AEEA-γGlu-C20 diacid])AQ[Aib]AFIEYLIAGGPSSG-NH2
modifications: N-terminus assumed
SMILES: CC[C@H](C)[C@H](NC(=O)[C@H](CC(C)C)NC(=O)[C@H](Cc1ccc(O)cc1)NC(=O)[C@H](CCC(=O)O)NC(=O)[C@@H](NC(=O)[C@H](Cc1ccccc1)NC(=O)[C@H](C)NC(=O)C(C)(C)NC(=O)[C@H](CCC(N)=O)NC(=O)[C@H](C)NC(=O)[C@H](CCCCNC(=O)COCCOCCNC(=O)COCCOCCNC(=O)CC[C@H](NC(=O)CCCCCCCCCCCCCCCCCCC(=O)O)C(=O)O)NC(=O)[C@H](CCCCN)NC(=O)[C@H](CC(=O)O)NC(=O)[C@H](CC(C)C)NC(=O)[C@H](CC(C)C)NC(=O)[C@@H](NC(=O)[C@H](CO)NC(=O)[C@H](Cc1ccc(O)cc1)NC(=O)[C@H](CC(=O)O)NC(=O)[C@H](CO)NC(=O)[C@@H](NC(=O)[C@H](Cc1ccccc1)NC(=O)[C@@H](NC(=O)CNC(=O)[C@H](CCC(=O)O)NC(=O)C(C)(C)NC(=O)[C@@H](N)Cc1ccc(O)cc1)[C@@H](C)O)[C@@H](C)O)[C@@H](C)CC)[C@@H](C)CC)C(=O)N[C@@H](C)C(=O)NCC(=O)NCC(=O)N1CCC[C@H]1C(=O)N[C@@H](CO)C(=O)N[C@@H](CO)C(=O)NCC(N)=O
With B2, the Ki with human GLP-1 receptor came to 2.63 nM; with human glucagon receptor, 253 nM; in the assay with human GIP receptor, 0.0215 nM.

B3: Example 318 (peptide)
peptide: Y[Aib]EGTFTSDYSILLDKK([AEEA-AEEA-γGlu-C20 diacid])AQ[Aib]EFIEYLIAGGPSSG-NH2
modifications: N-terminus assumed
SMILES: CC[C@H](C)[C@H](NC(=O)[C@H](CC(C)C)NC(=O)[C@H](Cc1ccc(O)cc1)NC(=O)[C@H](CCC(=O)O)NC(=O)[C@@H](NC(=O)[C@H](Cc1ccccc1)NC(=O)[C@H](CCC(=O)O)NC(=O)C(C)(C)NC(=O)[C@H](CCC(N)=O)NC(=O)[C@H](C)NC(=O)[C@H](CCCCNC(=O)COCCOCCNC(=O)COCCOCCNC(=O)CC[C@H](NC(=O)CCCCCCCCCCCCCCCCCCC(=O)O)C(=O)O)NC(=O)[C@H](CCCCN)NC(=O)[C@H](CC(=O)O)NC(=O)[C@H](CC(C)C)NC(=O)[C@H](CC(C)C)NC(=O)[C@@H](NC(=O)[C@H](CO)NC(=O)[C@H](Cc1ccc(O)cc1)NC(=O)[C@H](CC(=O)O)NC(=O)[C@H](CO)NC(=O)[C@@H](NC(=O)[C@H](Cc1ccccc1)NC(=O)[C@@H](NC(=O)CNC(=O)[C@H](CCC(=O)O)NC(=O)C(C)(C)NC(=O)[C@@H](N)Cc1ccc(O)cc1)[C@@H](C)O)[C@@H](C)O)[C@@H](C)CC)[C@@H](C)CC)C(=O)N[C@@H](C)C(=O)NCC(=O)NCC(=O)N1CCC[C@H]1C(=O)N[C@@H](CO)C(=O)N[C@@H](CO)C(=O)NCC(N)=O
B3: the Ki in the assay with human GLP-1 receptor turned out to be 7.52 nM; in the assay with human glucagon receptor, 730 nM; with human GIP receptor, 0.0452 nM.

B4: Example 322 (peptide)
peptide: Y[Aib]EGTFTSDYSILLDKK([AEEA-AEEA-γGlu-C18 diacid])AQ[Aib]HFIEYLIEGGPSSG-NH2
modifications: N-terminus assumed
SMILES: CC[C@H](C)[C@H](NC(=O)[C@H](CC(C)C)NC(=O)[C@H](Cc1ccc(O)cc1)NC(=O)[C@H](CCC(=O)O)NC(=O)[C@@H](NC(=O)[C@H](Cc1ccccc1)NC(=O)[C@H](Cc1c[nH]cn1)NC(=O)C(C)(C)NC(=O)[C@H](CCC(N)=O)NC(=O)[C@H](C)NC(=O)[C@H](CCCCNC(=O)COCCOCCNC(=O)COCCOCCNC(=O)CC[C@H](NC(=O)CCCCCCCCCCCCCCCCC(=O)O)C(=O)O)NC(=O)[C@H](CCCCN)NC(=O)[C@H](CC(=O)O)NC(=O)[C@H](CC(C)C)NC(=O)[C@H](CC(C)C)NC(=O)[C@@H](NC(=O)[C@H](CO)NC(=O)[C@H](Cc1ccc(O)cc1)NC(=O)[C@H](CC(=O)O)NC(=O)[C@H](CO)NC(=O)[C@@H](NC(=O)[C@H](Cc1ccccc1)NC(=O)[C@@H](NC(=O)CNC(=O)[C@H](CCC(=O)O)NC(=O)C(C)(C)NC(=O)[C@@H](N)Cc1ccc(O)cc1)[C@@H](C)O)[C@@H](C)O)[C@@H](C)CC)[C@@H](C)CC)C(=O)N[C@@H](CCC(=O)O)C(=O)NCC(=O)NCC(=O)N1CCC[C@H]1C(=O)N[C@@H](CO)C(=O)N[C@@H](CO)C(=O)NCC(N)=O
On to B4, for which the figures for the inhibition constant (Ki) with human GLP-1 receptor, in the assay with human glucagon receptor and in the assay with human GIP receptor were 2.31 nM, 1030 nM and 0.175 nM, respectively.

B5: Example 321 (peptide)
peptide: Y[Aib]EGTFTSDYSILLDKK([AEEA-AEEA-γGlu-C18 diacid])AQ[Aib]TFIEYLIEGGPSSG-NH2
modifications: N-terminus assumed
SMILES: CC[C@H](C)[C@H](NC(=O)[C@H](CC(C)C)NC(=O)[C@H](Cc1ccc(O)cc1)NC(=O)[C@H](CCC(=O)O)NC(=O)[C@@H](NC(=O)[C@H](Cc1ccccc1)NC(=O)[C@@H](NC(=O)C(C)(C)NC(=O)[C@H](CCC(N)=O)NC(=O)[C@H](C)NC(=O)[C@H](CCCCNC(=O)COCCOCCNC(=O)COCCOCCNC(=O)CC[C@H](NC(=O)CCCCCCCCCCCCCCCCC(=O)O)C(=O)O)NC(=O)[C@H](CCCCN)NC(=O)[C@H](CC(=O)O)NC(=O)[C@H](CC(C)C)NC(=O)[C@H](CC(C)C)NC(=O)[C@@H](NC(=O)[C@H](CO)NC(=O)[C@H](Cc1ccc(O)cc1)NC(=O)[C@H](CC(=O)O)NC(=O)[C@H](CO)NC(=O)[C@@H](NC(=O)[C@H](Cc1ccccc1)NC(=O)[C@@H](NC(=O)CNC(=O)[C@H](CCC(=O)O)NC(=O)C(C)(C)NC(=O)[C@@H](N)Cc1ccc(O)cc1)[C@@H](C)O)[C@@H](C)O)[C@@H](C)CC)[C@@H](C)O)[C@@H](C)CC)C(=O)N[C@@H](CCC(=O)O)C(=O)NCC(=O)NCC(=O)N1CCC[C@H]1C(=O)N[C@@H](CO)C(=O)N[C@@H](CO)C(=O)NCC(N)=O
On to B5, for which the Ki was determined as 4.2 nM with human GLP-1 receptor, 770 nM with human glucagon receptor and 0.064 nM with human GIP receptor.

B6: Example 267 (peptide)
peptide: Y[Aib]EGTFTSDYSILLDKK([AEEA-AEEA-γGlu-C18 diacid])AQ[Aib]AFIEYLIEGG-NH2
modifications: N-terminus assumed
SMILES: CC[C@H](C)[C@H](NC(=O)[C@H](CC(C)C)NC(=O)[C@H](Cc1ccc(O)cc1)NC(=O)[C@H](CCC(=O)O)NC(=O)[C@@H](NC(=O)[C@H](Cc1ccccc1)NC(=O)[C@H](C)NC(=O)C(C)(C)NC(=O)[C@H](CCC(N)=O)NC(=O)[C@H](C)NC(=O)[C@H](CCCCNC(=O)COCCOCCNC(=O)COCCOCCNC(=O)CC[C@H](NC(=O)CCCCCCCCCCCCCCCCC(=O)O)C(=O)O)NC(=O)[C@H](CCCCN)NC(=O)[C@H](CC(=O)O)NC(=O)[C@H](CC(C)C)NC(=O)[C@H](CC(C)C)NC(=O)[C@@H](NC(=O)[C@H](CO)NC(=O)[C@H](Cc1ccc(O)cc1)NC(=O)[C@H](CC(=O)O)NC(=O)[C@H](CO)NC(=O)[C@@H](NC(=O)[C@H](Cc1ccccc1)NC(=O)[C@@H](NC(=O)CNC(=O)[C@H](CCC(=O)O)NC(=O)C(C)(C)NC(=O)[C@@H](N)Cc1ccc(O)cc1)[C@@H](C)O)[C@@H](C)O)[C@@H](C)CC)[C@@H](C)CC)C(=O)N[C@@H](CCC(=O)O)C(=O)NCC(=O)NCC(N)=O
For B6, the figures for the Ki in the assay with human GLP-1 receptor, with human glucagon receptor and in the assay with human GIP receptor were 1.57 nM, 349 nM and 0.0628 nM, respectively.
